The DeepSol protein solubility set

Test: soluble on expression in E. coli; label from the status in PepcDB or PDB records

| Sequence | soluble on expression in E. coli |
| --- | --- |
| MGSDKIHHHHHHMITRIEAYKYRCFNTLDLALEQQHVFAGSNGSGKTTLLDIPALFGDLLNMSDINDAFFKPTNGRERARAESAKEVVHQLRGEYFILALEVSLPPSIIEELLRGASDAWQSKFQKSELRPDTARYEISFRINQDKFQVTEEHLTLFPNNELRPEHGMGLIGVDDFRRSAPWFKVLSRSLGTKVKYQAEYQAGKSSILEFGLRDNQLALAALPADHDLYPAALWLQEFLIQGSHCYEPQWPAMRLAASPRDKHAFKADGSSLPWQVHALQQSDPEGLNEWLELVQMALPSIAKIVAKQRIDDSFCYLEVTYSNGMVVPSSGLSHGTLHILALTIIPYLQNAPKIITLEEPENGIHPKAIDAVLEALKLTSDTQLWLSTHSPVVLANTEVEQIITMRFNQDGATEVLKGHEHPRLKTWKGEVDLGTLFAAGVLE | not soluble |
| MGSDKIHHHHHHMSNPLLKQICELDVFTLLVFKSIFDNGHANSAAKALNVSAPKISRCLNALRLTFNDELFYRRQQGLKPTPLAESLYVAICQFTDAVHHLEQSALQLQHSASHVELPLHIAASNGLLSFLAPQLSSPEVISELGQIRLHKWQDNSAELIHAGELDLGITQEPVETKELTITHLGSIASVYIVASKHHPLWESQFDITLEQICRHSFLCLEMKGFNARIDPLELFCQRQGLLLPSIERVIDREEWYAHLLTMQSVAFCSSIDMHTVKHMPGLKLVPLSVSELHRLHETIMPPQYFLIEKPRSHRRYNQTQCELVVRSWLTVLSSNSRVSQ | not soluble |
| MSLSDNDLQRRILDAVDAGFDAQLATTRDFVAIPSTRGAEGPCQDMIGDLLRQRGYEVDDWHIDLDDLKDLRGYGPIEHDFSKARTVVGTYRPSTNAGRSLILQGHCDVVPAGPLEMWDTPPFSPVIKQGRMYGRGACDMKSGTIGALYALDAIKAAGLRPTGRIHFQSVIEEESTGVGALSTLQRGYRADACFIPEPTGGKMVRSQVGVIWFRLKVRGYPVHVATAGTGSNAITAAYHLIDALGKLEEEWNRRAASDPHFKTLAHPINFNPGIIKGGDWASSVPAWCDVDCRIAILPGWSVADHQAEILACVSAAARDHRFLSNNPPQVEWSGFLSEGYELKNAAEPEAAFGKAYQAVYGSEVEDLVFTALTDTRFYGLNYNIPSLCFGASGEAMHGFNEYIDLESLRQSTKATALFIAEWCGVEPAEGHHHHHH | soluble |
| MSLGKTLFDKLWNRHVIYGKEGEPQLLYVDLHLIHEVTSPQAFEGLRMENRPLRRPDKTFATMDHNVPTEDIFNIQDLVAKKQIEALQTNCEEFGVTLADMGSDRQGIVHMVGPETGLTQPGKVIVCGDSHTATHGAFGAIGFGIGSSEVEHVFATQTIWQQKPKSMGIEINGNLPKGVYAKDIILHLIATYGVAFGTGYAVEYYGETIRNMSMEERMTICNMAIEGGAKMGMMAPDETTFEYVRGREYAPADMDKAISDWKTLQTDPDAEYDLHIKMDASILEPYVTWGTNPEMGVPFSKAFPEIKDMNYERAYEYMGLKPGQTAEEIELGYVFIGSCTNARLSDLEEAARIVKGNKVKNNIRALVVPGSRQVRNAAESIGLDKIFIEAGFEWREPGCSMCLGMNPDQVPDGVHCASTSNRNFEGRQGKGARTHLVSPAMAAAAAINGHFIDIRKEAVISGGNEGHHHHHH | not soluble |
| MHPPIKIQTILLFILTTVHCSAKRLPQIYWNSTNPLVERYAAIGDTLDIVCPFFDENSDELTEQSIIYRVTEEEYENCERRSKAKELGRCTQPYQEEKLKVAFRLMSPNPSGLDYRPGVTYYFISTSTGSRKGLYNEQGGLCASHNLKMVIHITDRNGDIGPHHHRHHHKKTTTTTTTSTSTSTPKTIPPVVEMDSSAEKLWEQFYEKVMPIDNTWPEITRGERVTLYQGNKKDEYEQVPAEVVDFEIHEIGDVESLYSSSGRLRYVLLLPALLLLRIF | not soluble |
| SENLPAVTTEEPTPMGRGPVGPSGGGSTRDQVRTVVMRPSVSWEKAGPEEAKAPVRGGATVPAESLERPGPSSCFSRDASVITKLAKNEAGAFEPPCSETVPETVRWVWPWNP | soluble |
| MKVAVLGAAGGIGQALALLLKTQLPSGSELSLYDIAPVTPGVAVDLSHIPTAVKIKGFSGEDATPALEGADVVLISAGVARKPGMDRSDLFNVNAGIVKNLVQQVAKTCPKACIGIITNPVNTTVAIAAEVLKKAGVYDKNKLFGVTTLDIICSNTFVAELKGKQPGEVEVPVIGGHSGVTILPLLSQVPGVSFTEQEVADLTKRIQNAGTEVVEAKAGGGSATLSMGQAAARFGLSLVRALQGEQGVVECAYVEGDGQYARFFSQPLLLGKNGVEERKSIGTLSAFEQNALEGMLDTLKKDIALGQEFVNK | soluble |
| MRRCCGDLAASRGGCEPASRNLTRTRLTFAALGRINRPAEHDREDAMTRQEARDHEPRDQDAALSRRTLVRGLALGAAATMAGPALAQTGPAAPPTTITTPPRDFGPNGAPTTYFWDPDIIAVDPSFDDLAQPNTAIKRLYTGVLWAEGPAWSAQGRYLLWSDIPNNRQMRWSEDDGRISVFRSPSNNSNGNSFDFQGRQLSCEHLTRRVTRYEHDGTATVLCDNYNGKKLNSPNDVVAHPDGSYWFTDPPYGGQLYEGEPDAAGGPSNSGGKLNPRIGQPAGFTPGKRELPTNCYRIDPSGRVDLVVTEEQVPDPNGLCFSPDFKKLYVVSTGKGPGDSGPGGKGEIFVFDVGADNKLSNQKRFSDCTIDGVKCGPDGVRCDVNGNVWASSNAGRAVGYSGVTVWSPEGKLLGRIRLPEVCGNICFGGPKRNRLFMAASQSLYAVFTATQGAGPGLEHHHHHH | soluble |
| MSLTSVVFLNPGNSTETFWVSYSQFMQAAARDLGLDLRILYAERDPQNTLQQARELFQGRDKPDYLMLVNEQYVAPQILRLSQGSGIKLFIVNSPLTLDQRELIGQSRQNYSDWIGSMVGDDEEAGYRMLKELLHKLGPVPAGHGIELLAFSGLKVTPAAQLRERGLRRALAEHPQVHLRQLVYGEWNRERAYRQAQQLLKRYPKTQLVWSANDEMALGAMQAARELGRKPGTDLLFSGVNSSPEALQALIDGKLSVLEAGHFTLGGWALVALHDDALGLDARRLGGPDWQLSLFQEGHHHHHH | not soluble |
| MKKQLLIVDGYNMIGAWPELVQLKKQERLEDARELLLSRLSNYAKYEGLEIIVVFDAQLVPGIQQTYKKYLLTVVFTKEDETADSYIERLAGEKNDRLTQVTVATSDLAEQWVVFSQGALRTSANELYKAVQKTEKTIAIHATDIHFQQFRRNSPWNVEQLSKLSEKLEELSQKKD | not soluble |
| MTMPLRGLGPPDDTGVREVSTGDDHHYAMWDAAYVLGALSAADRREFEAHLAGCPECRGAVTELCGVPALLSQLDRDEVAAISESAPTVVASGLSPELLPSLLAAVHR | soluble |
| MSRTTPYRLDDQIGFILRQANQRYAALFANGIGNGLTPTQWAALVRLGETGPCPQNQLGRLTAMDAATIKGVVERLDKRGLIQRSADPDDGRRLLVSLSPAGRAELEAGLAAAREINRQALAPLSLQEQETLRGLLARLI | soluble |
| MKLIKTIDAVGQVLCHDITQIIPGEFKGRKFKKGHIVKEEDIPVLLSLGKDNLYVWEKSEGMVHENEGALFLKELTAGENLDFSEIKEGKIDFIAACDGLLKIDVDALFDLNCVGEIMMATLHNNFIVNKGLKVAGTRVIPLVIDEKKLEDAKKVVGNRKIVNVVPFKPKKVGIVTTGNEVFYSRIVDKFGPVIEEKVKGFGCEVIGQTICPDDKEIIKSAIKEFISQGAELICCTGGMSVDPDDVTPTAIKETGADLVTYGSPILPGAMFLLAYYGEVPIMGIPGCAMYHKTTVFDIVLSRVLIDEKLDKYDIARYGHGGLCMNCDVCTYPACNFAKI | soluble |
| AKTKAAVSMEGFSWGNYINSNSFIAAPVTCFKHAPMGTCWGDISENVRVEVPNTDCSLPTKVFWIAGIVKLAGYNALLRYEGFENDSGLDFWCNICGSDIHPVGWCAASGKPLVPPRTIQHKYTNWKAFLVKRLTGAKTLPPDFSQKVSESMQYPFKPCMRVEVVDKRHLCRTRVAVVESVIGGRLRLVYEESEDRTDDFWCHMHSPLIHHIGWSRSIGHRFKRSDITKKQDGHFDTPPHLFAKVKEVDQSGEWFKEGMKLEAIDPLNLSTICVATIRKVLADGFLMIGIDGSEAADGSDWFCYHATSPSIFPVGFCEINMIELTPPRGYTKLPFKWFDYLRETGSIAAPVKLFNKDVPNHGFRVGMKLEAVDLMEPRLICVATVTRIIHRLLRIHFDGWEEEYDQWVDCESPDLYPVGWCQLTGYQLQPPASQSSR | soluble |
| MGSDKIHHHHHHMAILERKIIHEIDTSCSHIIYPQFVLPRHKHAEYEIMLFTQGSGKQFVGEGVADFQEGDIALIGSNVPHLHLCNSKLNPVANTVCSAGEALQFLPDIFPVHIENLPDYQEIYRLLRKSQYGVRFYDKGLYDEVKELFQEMDLLKHTNRLITILRILGRLTECRNIKLLSDVAYNGSNRLLEVNEPVNKVYTYLFNHFKEKVLLQEVADYVKQNPSALCRYFKQRTDKSIFQCLAEIRIEHACKLLSYSNLSVSQIAFESGFNSVPYFIKQFQSITEKTPGEYRELIGR | not soluble |
| MAHHHHHHMSLNAAAAADERSRKEMDRFQVERMAGQGTFGTVQLGKEKSTGMSVAIKKVIQDPRFRNRELQIMQDLAVLHHPNIVQLQSYFYTLGERDRRDIYLNVVMEYVPDTLHRCCRNYYRRQVAPPPILIKVFLFQLIRSIGCLHLPSVNVCHRDIKPHNVLVNEADGTLKLCDFGSAKKLSPSEPNVAYICSRYYRAPELIFGNQHYTTAVDIWSVGCIFAEMMLGEPIFRGDNSAGQLHEIVRVLGCPSREVLRKLNPSHTDVDLYNSKGIPWSNVFSDHSLKDAKEAYDLLSALLQYLPEERMKPYEALCHPYFDELHDPATKLPNNKDLPEDLFRFLPNEIEVMSEAQKAKLVRK | soluble |
| MQKLPHSLFFGPAGCGKTTFARVVAKDFGLDFYEFDGGNFKLEDLRKIIENYKNSLYKPLIFIDEIHRLSKTQQEMLLIPMENYRCIVIGASTENPYFVLSSGIRSRSMLFEFKNLGQKDLELLLERVQQKIAFKIEDNAKEFLLKSFDARAMLNLLEFALVLNEKEITLENLKKLRNGVNSEGVSSKDTHYILASALIKSLRGSDVDAAIYYLARLIDAGESADFIARRLIIFASEDISNADPNALNLAVSTLTAVKNIGYPEARIILSQCAVYLASAPKSNSSYNAINKALDYVKNNPALEIPNYLNNNHPEKKNYLYPHNFGGWVKQNYLSANLKFYESKGIGEEARLLENLSKLKNIKS | soluble |
| SMTTTTTTISQHNFYGAGDSETCISIIENLKEEYGLFVWPCSVILAEYVWQHRSRFRDSSILELGAGTSLPGLVAAKVGANVTLTDDATKPEVLDNMRRVCELNKLNCNVLGLTWGVWDAPILDLRPNIILGADVLYDSSGSFHLFLFWVLAFSFSPCE | soluble |
| SSAMGAGPDHLFNLRNNFYLGAYQTAINNSEIANLSPENAVERDCLVFRSYIALGSYQLVISEIDESAATPLQAVKLLAMYLSTPQNKESTISSLKEWLADSTIGNNDTLRLIAGIIFMHEEDYNETLKHTHAGGTMDLYALNVQIFIKMHRAEYAEKQLRVMQQIDEDHTLTQLASAWLNLAVGGSKIQEAYLIFEDFSEKYPMTCLILNGKAVCCMQMGNFDEAETLLLEALNKDAKDPETLANLVVCSLHVGKSSSRHLSQLKLSHPEHILVKRVSSAEDNFERAVQLVA | soluble |
| MVMKREVVGYTTMSEHLIDTQLTRSPFFFASANQSMLGCGVAHAFQQAIPFAELANQAKQLLQQAKRDECDNPLLFGIVPFDPKTPTRFMIPRTLYVSSSPRLNRPAHLTRQVAKLISSPSGEQYKQGVSHLLNMFHHSGLSKVVLSRAIEIATEQEIALPTLLRSLLAINHHGYTFAASLDEQRKLIGASPELLVAKRGNYLISNPLAGSRPRSQDAQENAQRRASLLNTAKDLHEHGLVVEEVERIMSRYCRNLYTPMVPSVIETETMLHLSTLLEGQVSDPEVCALQVAADLHPTPAVCGFPRESAYQAIRELEEFDRGYFTGMVGWCDARGNGEWVVTIRCAEVGSHQMKLFAGAGIVDESLPQSELEETGAKMKTILAAAGIELNDVLTA | not soluble |
